Earlier results as cited in paper PMC4776139, “Extended string-like binding of the phosphorylated HP1α N-terminal tail to the lysine 9-methylated histone H3 tail” (Scientific Reports, 2016).

Tested on: H3K9me
Settings: effect of N-terminal tail phosphorylation
From the text: In mice there are three HP1 isoforms, HP1α, HP1β and HP1γ with highly conserved CDs that are thought to share a similar structural feature to interact with H3K9me. By contrast, the CDs of these isoforms are connected to a less-conserved N-terminal tail, which is hypothesized to contribute to their isoform-specific function. In HP1α, in particular, there are four successive serine residues in the N-terminal tail that are constitutively phosphorylated in vivo[13]. […] Howeve ...

B1: HP1α: mouse heterochromatin protein 1 isoform; chromodomain with N-terminal tail (protein, UniProt Q61686 1-191, looked up)
Chromobox protein homolog 5: MGKKTKRTADSSSSEDEEEYVVEKVLDRRMVKGQVEYLLKWKGFSEEHNTWEPEKNLDCPELISEFMKKYKKMKEGENNKPREKSEGNKRKSSFSNSADDIKSKKKREQSNDIARGFERGLEPEKIIGATDSCGDLMFLMKWKDTDEADLVLAKEANVKCPQIVIAFYEERLTWHAYPEDAENKEKESAKS
  affinity for H3K9me, in words: its affinity becomes much stronger when the N-terminal tail is phosphorylated
